The values that follow come from publication PMC5241209, “Identification and functional analysis of c.422_423InsT, a novel mutation of the HNF1A gene in a patient with diabetes”.

This series addresses HNF1A (rHNF1A) (UniProt P20823 1-631). The series is described as follows: EMSA; two complexes, complex 1 more abundant; abolished by 300x unlabeled probe; 12 mM Hepes pH 7.9, 60 mM KCl, 10% glycerol, 1 mM EDTA, 1 mM MgCl2, 1 mM DTT plus DNA mix (1 mM spermidine, 1 mM MgCl2), 1 ug poly(dG/dC)·poly(dG-dC), 4 C; probe 1.29 nM (0.52 nM in mutant titration); 6% PAGE, 0.5x TBE. The following applies: protein: ivt; chain copies: 2; label: 32P 5' end (T4 PNK). A general note: A gel shift assay detects complexes by their altered migration in electrophoresis.

Chain of HNF1A (rHNF1A) (P20823 whole entry): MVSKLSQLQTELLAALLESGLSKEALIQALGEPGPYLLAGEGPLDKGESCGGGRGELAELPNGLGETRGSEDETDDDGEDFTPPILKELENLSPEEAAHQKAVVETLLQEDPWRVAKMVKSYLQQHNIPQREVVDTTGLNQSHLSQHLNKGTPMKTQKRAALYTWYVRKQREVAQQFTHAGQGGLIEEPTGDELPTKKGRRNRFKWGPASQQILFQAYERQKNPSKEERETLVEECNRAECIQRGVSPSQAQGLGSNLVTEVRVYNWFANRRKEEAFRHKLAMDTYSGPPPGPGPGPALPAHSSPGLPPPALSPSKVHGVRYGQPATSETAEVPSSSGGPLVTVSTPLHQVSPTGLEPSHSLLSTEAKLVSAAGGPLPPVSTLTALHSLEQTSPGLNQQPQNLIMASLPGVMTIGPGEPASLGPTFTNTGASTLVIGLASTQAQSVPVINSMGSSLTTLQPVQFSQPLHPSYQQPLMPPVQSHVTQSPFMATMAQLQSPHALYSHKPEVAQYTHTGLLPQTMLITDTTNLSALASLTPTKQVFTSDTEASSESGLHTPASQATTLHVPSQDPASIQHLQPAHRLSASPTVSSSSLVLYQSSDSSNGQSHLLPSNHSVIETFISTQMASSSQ

B1: GLUT2 promoter HNF1A site (dsDNA)
DNA 1: CTCAGTAAAGATTAACCAT
DNA 2: ATGGTTAATCTTTACTGAG
In the case of B1, the binding result is recorded as “binds”.
